Changes are numbered by the printed parent chain. Names and notes keep the numbering of the source. Non-standard residues stand in square brackets, D forms with d. No end group written: not given here. *: point of attachment. FITC = O=C1OC2(c3ccc(O)cc3Oc3cc(O)ccc32)c2ccc(NC(=S)*)cc21; pY = N[C@@H](Cc1ccc(OP(=O)(O)O)cc1)C(=O)O; Ahx = NCCCCCC(=O)O
Experiments:
[1] = molecular target: T1, HOIP PUB domain (HOIP 1-184) (Homo sapiens, UniProt Q96EP0); assay: fluorescence polarization binding of FITC-Ahx peptides to HOIP PUB domain; details: for reduction of HOIP binding versus wild-type OTULIN peptide: OTULIN peptide point mutants
T1 construct: PUB domains from HOIP (aa 1–184, red); His6 (3C-cleavable, pOPINB) (N, cleaved yes); made in house; host or cells: E. coli Rosetta2 (DE3) pLacI
T1 sequence (Q96EP0 1-184): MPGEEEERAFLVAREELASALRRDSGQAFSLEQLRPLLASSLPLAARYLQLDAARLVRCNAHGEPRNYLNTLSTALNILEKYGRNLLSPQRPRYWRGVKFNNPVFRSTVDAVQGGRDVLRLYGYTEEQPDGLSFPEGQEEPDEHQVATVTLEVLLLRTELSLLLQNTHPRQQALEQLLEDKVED
Method: Serially diluted PUB domains and HOIP variants were mixed with an equal volume of 100 nM FITC-Ahx-labeled peptides of OTULIN and p97. Fluorescence polarization was recorded on a PheraStar plate reader (BMG LABTECH) and fitted to a one-site binding model with GraphPad Prism 5.
(§1) Fluorescence polarization binding assays
10 µl of 100 nM FITC-Ahx peptides of either OTULIN (49-67) or p97 (797-806) were aliquoted into a 384-well low volume plate (Corning). Serial dilutions of HOIP PUB into FP assay buffer (20 mM Tris pH 7.4, 100 mM NaCl, 1 mM DTT) were prepared and 10 µl of this was aliquoted to FITC-Ahx peptide-containing wells. Fluorescence polarization was recorded on a PheraStar plate reader (BMG Labtech) using an optics module with $ex = 485 nm and $em = 520 nm. To derive binding constants (KD), polarization values were fitted to a one-site binding model using Graphpad Prism 5. […]

[2] = system: endogenous LUBAC (HOIP, HOIL-1, SHARPIN); assay: coimmunoprecipitation of endogenous LUBAC components with HA-tagged OTULIN; format: cell-based; details: HA-OTULIN variants in HEK293T cells, anti-HA IP, western blot
Method: (§2) Transfected HEK293T or U2OS and NOD2 cells were lysed in the presence of protease and phosphatase inhibitors. Clarified lysates were incubated overnight with anti-V5 and anti-HA-agarose resin. […]
(§3) siOTULIN: […], siMM […]
(§4) Immunoprecipitation of HOIP-V5 and HA-OTULIN
(§5) HEK293T or U2OS/NOD2 cells were transfected as indicated. The cells were lysed in IP buffer buffer (25 mM HEPES pH 7.4, 150 mM KCl, 2 mM MgCl2, 1 mM EGTA, 0.5% (v/v) Triton X-100) supplemented with 5 mM NEM (Sigma-Aldrich), cOmplete protease inhibitor cocktail (Roche) and PhosSTOP
(§6) (Roche). After 30 minutes on ice, the lysates were cleared by centrifugation and incubated overnight at 4 °C with anti-V5-agarose resin or anti-HA-agarose resin. The beads were washed four times in ice-cold IP buffer and the precipitated material was eluted with 0.2 M glycine, pH 2.5. […]

[3] = system: HOIP PUB domain (15N HOIP 1-184); assay: NMR binding (chemical shift perturbation) to 15N-labeled HOIP PUB domain; design: species or system Human; details: 15N BEST-TROSY NMR, 100 μM 15N HOIP 1-184, 20 mM phosphate pH 6.8, 50 mM NaCl, 2 mM DTT, 298K
Method: Standard triple-resonance experiments (HNCA, HN(CO)CA, HNCACB, CBCA(CO)NH, and HBHA(CO)NH) were acquired for the assignment of HOIP resonances. Constant time ^13C and ^13C-HSQC were acquired for the methyl and aromatic regions. In addition, (HB)CB(CGCD)HD and (HB)CB(CGCDCE)HE experiments coupled the Cβ of tyrosine resonances to the Hδ and Hε positions of the tyrosine ring, respectively.
as §1
10 µl of 100 nM FITC-Ahx peptides of either OTULIN (49-67) or p97 (797-806) were aliquoted into a 384-well low volume plate (Corning). Serial dilutions of HOIP PUB into FP assay buffer (20 mM Tris pH 7.4, 100 mM NaCl, 1 mM DTT) were prepared and 10 µl of this was aliquoted to FITC-Ahx peptide-containing wells. Fluorescence polarization was recorded on a PheraStar plate reader (BMG Labtech) using an optics module with $ex = 485 nm and $em = 520 nm. To derive binding constants (KD), polarization values were fitted to a one-site binding model using Graphpad Prism 5.
Nuclear Magnetic Resonance Spectroscopy
Uniformly labeled 15N or 13C, 15N samples of HOIP were prepared following growth in 2M9 medium supplemented with either 15N NH4Cl or 13C glucose.
Proteins were purified as described above and all samples were exchanged into NMR sample buffer (20 mM Na2HPO4/NaH2PO4 pH 6.8, 50 mM NaCl, 2 mM DTT). Lyophilized OTULIN and p97 PIM peptides were reconstituted in NMR sample buffer and the pH adjusted to pH 6.8 prior to use. NMR data were acquired at 298K on Bruker Avance III 600 MHz and Avance2+ 700
MHz spectrometers, equipped with cryogenic triple resonance TCI probes.
Standard triple resonance experiments (HNCA, HN(CO)CA, HNCACB, CBCA(CO)NH, HBHA(CO)NH) were acquired for the assignment of backbone
HOIP resonances. In addition, constant-time (ct) 13C and 13C-HSQC were acquired for the methyl and aromatic regions. For assignment of the H",H# resonances of HOIP tyrosines, (HB)CB(CGCD)HD and (HB)CB(CGCDCE)HE spectra were acquired, which coupled the C$ position of the tyrosine resonances to the H"/H# position of the tyrosine ring respectively. […]

[4] = molecular target: T2, HOIP extended PUB domain (aa 1–184) (UniProt Q96EP0 1-184); assay: FP
T2 chain: T1 sequence (Q96EP0 1-184)

endogenous OTULIN = assay: coimmunoprecipitation of endogenous OTULIN with tagged HOIP/HOIL-1; format: cell-based; details: tagged HOIP/HOIL-1 constructs, HEK293T or U2OS/NOD2 cells, western blot
Method: as §2, §3, §4, §5, §6

D54A: fluorescently labeled OTULIN peptide (aa 49–67) with point mutation D54A ({FITC-Ahx}-AEHEEAMYRAADEIEKEKE)
reduction of HOIP binding versus wild-type OTULIN peptide [1]: 60 fold

M55D: fluorescently labeled OTULIN peptide (aa 49–67) with point mutation M55D ({FITC-Ahx}-AEHEEDDYRAADEIEKEKE)
binding to HOIP PUB domain (in words) [1]: abrogated binding

FITC-Ahx-OTULIN 49-63 pY56: Tyr56-phosphorylated FITC-Ahx-labeled OTULIN peptide (legend: 49–67) ({FITC-Ahx}-AEHEEDM[pY]RAADEIEKEKE)
binding to HOIP PUB domain (in words) [1]: unable to bind HOIP

OTULIN Y56E: HA-tagged full-length OTULIN with PIM point mutation Y56E
coimmunoprecipitation of endogenous LUBAC components (in words) [2]: abrogated binding

Y56A: fluorescently labeled OTULIN peptide (aa 49–67) with point mutation Y56A ({FITC-Ahx}-AEHEEDMARAADEIEKEKE; UniProt Q96BN8 49-67, looked up, variant Y56A)
binding to HOIP PUB domain (in words) [1]: abrogated binding

OTULIN Y56A: HA-tagged full-length OTULIN with PIM point mutation Y56A
coimmunoprecipitation of endogenous LUBAC components (in words) [2]: abrogated binding

OTULIN D54A: HA-tagged full-length OTULIN with PIM point mutation D54A
coimmunoprecipitation of endogenous LUBAC components (in words) [2]: Residual binding was still observed

OTULIN 49-67: unlabeled OTULIN PIM peptide (aa 49–67) used in NMR and crystallization (AEHEEDMYRAADEIEKEKE)
binding / chemical shift perturbations of HOIP PUB domain (in words) [3]: CSPs and loss of a large number of resonances, a feature common to slow exchange

OTULIN Y56F: HA-tagged full-length OTULIN with PIM point mutation Y56F
coimmunoprecipitation of endogenous LUBAC components (in words) [2]: abrogated binding

Y56W: fluorescently labeled OTULIN peptide (aa 49–67) with point mutation Y56W ({FITC-Ahx}-AEHEEDMWRAADEIEKEKE)
reduction of HOIP binding versus wild-type OTULIN peptide [1]: 100 fold

AEHEEDMFRAADEIEKEKE (not fully specified (N-terminus)) [fluorescently labeled OTULIN peptide (aa 49–67) Y56F]
Kd [4]: 64.5 µM

{FITC-Ahx}-AEHEEDMWRAADEIEKEKE [fluorescently labeled OTULIN peptide (aa 49–67) Y56W]
Kd [4]: 21.3 µM

{FITC-Ahx}-AEHEEAMYRAADEIEKEKE [fluorescently labeled OTULIN peptide (aa 49–67) D54A]
Kd [4]: 11.2 µM

B1: N102D: V5-tagged HOIP with point mutation N102D in the PUB binding site (protein, UniProt Q96EP0 1-1072, looked up, variant N102D)
E3 ubiquitin-protein ligase …: MPGEEEERAFLVAREELASALRRDSGQAFSLEQLRPLLASSLPLAARYLQLDAARLVRCNAHGEPRNYLNTLSTALNILEKYGRNLLSPQRPRYWRGVKFNDPVFRSTVDAVQGGRDVLRLYGYTEEQPDGLSFPEGQEEPDEHQVATVTLEVLLLRTELSLLLQNTHPRQQALEQLLEDKVEDDMLQLSEFDPLLREIAPGPLTTPSVPGSTPGPCFLCGSAPGTLHCPSCKQALCPACDHLFHGHPSRAHHLRQTLPGVLQGTHLSPSLPASAQPRPQSTSLLALGDSSLSSPNPASAHLPWHCAACAMLNEPWAVLCVACDRPRGCKGLGLGTEGPQGTGGLEPDLARGRWACQSCTFENEAAAVLCSICERPRLAQPPSLVVDSRDAGICLQPLQQGDALLASAQSQVWYCIHCTFCNSSPGWVCVMCNRTSSPIPAQHAPRPYASSLEKGPPKPGPPRRLSAPLPSSCGDPEKQRQDKMREEGLQLVSMIREGEAAGACPEEIFSALQYSGTEVPLQWLRSELPYVLEMVAELAGQQDPGLGAFSCQEARRAWLDRHGNLDEAVEECVRTRRRKVQELQSLGFGPEEGSLQALFQHGGDVSRALTELQRQRLEPFRQRLWDSGPEPTPSWDGPDKQSLVRRLLAVYALPSWGRAELALSLLQETPRNYELGDVVEAVRHSQDRAFLRRLLAQECAVCGWALPHNRMQALTSCECTICPDCFRQHFTIALKEKHITDMVCPACGRPDLTDDTQLLSYFSTLDIQLRESLEPDAYALFHKKLTEGVLMRDPKFLWCAQCSFGFIYEREQLEATCPQCHQTFCVRCKRQWEEQHRGRSCEDFQNWKRMNDPEYQAQGLAMYLQENGIDCPKCKFSYALARGGCMHFHCTQCRHQFCSGCYNAFYAKNKCPEPNCRVKKSLHGHHPRDCLFYLRDWTALRLQKLLQDNNVMFNTEPPAGARAVPGGGCRVIEQKEVPNGLRDEACGKETPAGYAGLCQAHYKEYLVSLINAHSLDPATLYEVEELETATERYLHVRPQPLAGEDPPAYQARLLQKLTEEVPLGQSIPRRRK
modifications: V5 tag
coimmunoprecipitation of endogenous OTULIN (in words) (endogenous OTULIN): abrogated OTULIN binding

B2: Y82F: V5-tagged HOIP with point mutation Y82F in the PUB binding site (protein, UniProt Q96EP0 1-1072, looked up, variant Y82F)
E3 ubiquitin-protein ligase …: B1 E3 ubiquitin-protein ligase … with Y82F, D102N
modifications: V5 tag
coimmunoprecipitation of endogenous OTULIN (in words) (endogenous OTULIN): decreased binding

B3: K99E: V5-tagged HOIP with point mutation K99E in the PUB binding site (protein)
chain: B1 E3 ubiquitin-protein ligase … with K99E, D102N
modifications: left off: V5, end not stated, kept
coimmunoprecipitation of endogenous OTULIN (in words) (endogenous OTULIN): decreased binding

From publication PMC4017264 (Molecular Cell, 2014)
